# According to paper PMC11315935, “Multi-layered heterochromatin interaction as a switch for DIM2-mediated DNA methylation” (Nature Communications, 2024):
# Changes are numbered by the printed parent chain. In names and notes the source's numbering stands.
# B1: DIM2 (Defective-In-Methylation-2) N-terminal fragment, residues 1-1242, wild type (domain or fragment, Neurospora crassa, UniProt Q3Y3Z1 1-1242, looked up)
# chain: MDSPDRSHGGMFIDVPAETMGFQEDYLDMFASVLSQGLAKEGDYAHHQPLPAGKEECLEPIAVATTITPSPDDPQLQLQLELEQQFQTESGLNGVDPAPAPESEDEADLPDGFSDESPDDDFVVQRSKHITVDLPVSTLINPRSTFQRIDENDNLVPPPQSTPERVAVEDLLKAAKAAGKNKEDYIEFELHDFNFYVNYAYHPQEMRPIQLVATKVLHDKYYFDGVLKYGNTKHYVTGMQVLELPVGNYGASLHSVKGQIWVRSKHNAKKEIYYLLKKPAFEYQRYYQPFLWIADLGKHVVDYCTRMVERKREVTLGCFKSDFIQWASKAHGKSKAFQNWRAQHPSDDFRTSVAANIGYIWKEINGVAGAKRAAGDQLFRELMIVKPGQYFRQEVPPGPVVTEGDRTVAATIVTPYIKECFGHMILGKVLRLAGEDAEKEKEVKLAKRLKIENKNATKADTKDDMKNDTATESLPTPLRSLPVQVLEATPIESDIVSIVSSDLPPSENNPPPLTNGSVKPKAKANPKPKPSTQPLHAAHVKYLSQELVNKIKVGDVISTPRDDSSNTDTKWKPTDTDDHRWFGLVQRVHTAKTKSSGRGLNSKSFDVIWFYRPEDTPCCAMKYKWRNELFLSNHCTCQEGHHARVKGNEVLAVHPVDWFGTPESNKGEFFVRQLYESEQRRWITLQKDHLTCYHNQPPKPPTAPYKPGDTVLATLSPSDKFSDPYEVVEYFTQGEKETAFVRLRKLLRRRKVDRQDAPANELVYTEDLVDVRAERIVGKCIMRCFRPDERVPSPYDRGGTGNMFFITHRQDHGRCVPLDTLPPTLRQGFNPLGNLGKPKLRGMDLYCGGGNFGRGLEEGGVVEMRWANDIWDKAIHTYMANTPDPNKTNPFLGSVDDLLRLALEGKFSDNVPRPGEVDFIAAGSPCPGFSLLTQDKKVLNQVKNQSLVASFASFVDFYRPKYGVLENVSGIVQTFVNRKQDVLSQLFCALVGMGYQAQLILGDAWAHGAPQSRERVFLYFAAPGLPLPDPPLPSHSHYRVKNRNIGFLCNGESYVQRSFIPTAFKFVSAGEGTADLPKIGDGKPDACVRFPDHRLASGITPYIRAQYACIPTHPYGMNFIKAWNNGNGVMSKSDRDLFPSEGKTRTSDASVGWKRLNPKTLFPTVTTTSNPSDARMGPGLHWDEDRPYTVQEMRRAQGYLDEEVLVGRTTDQWKLVGNSVSRHMALAIGLKFREAWLGTLYD
# B2: DIM2 (residues 1-1242) L134A/L139A double mutant (domain or fragment, Neurospora crassa, UniProt Q3Y3Z1 1-1242, looked up)
# chain: B1 chain with L134A, L139A
# B3: heterochromatin protein 1 (HP1), full length, residues 1-266 (natural protein, Neurospora crassa, UniProt Q1K612 1-266, looked up)
# chain: MPYDPSALSDEEAASSVELDTRSATSSSKKQSRDKKSVKYTIPEPEDFEDEEQNGDGADEGGEDDEEGDEEEEDVYVVEKILDHMLNDDNEPLFLVKWEGYEKKSDQTWEPEDTLIEGASERLKEYFTKIGGREKIFEASAAAQKIKKRGRPSSNSGTPQASSNKRSRKNGDHPLNSEEPQTAKNAAWKPPAGSWEEHIAQLDACEDEDTHKLMVYLTWKNGHKTQHTTDVIYKRCPQKMLQFYERHVRIIKRDPDSEDREGSVSQ
# notes: HP1, Neurospora crassa, UniProt Q1K612, residues 1-266, synthetic codon-optimised gene; Homodimer through its chromo shadow domains in the cryo-EM structures; only the CSDs (K189-I251, C191-I251) were traced; also called HP1-I; HP1-II; source: E. coli BL21 (DE3) RIL, purified (Ni-NTA, heparin, TEV cleavage, second Ni-NTA, SEC); not shown: His6, N-terminal, cleaved; MBP, N-terminal, cleaved
# B4: DIM2 (residues 1-1242) R1104A mutant (domain or fragment, Neurospora crassa, UniProt Q3Y3Z1 1-1242, looked up)
# chain: B1 chain with R1104A
# How the values were obtained:
# [1] = biological target: histone H3 peptide (residues 1-24) with H3K9me3, plus a C-terminal tryptophan (UniProt P68431 2-25, trimethyl-lysine at K9); assay: cell-based or functional assay
# [2] = biological target: B3; assay: cell-based or functional assay
# [3] = biological target: B1; assay: SEC; analytical SEC, 1.0 µM DIM2 and/or 2.5 µM HP1 on Superdex 200 increase 10/300 GL, 20 mM Tris-HCl pH 7.5, 100 mM NaCl, 5% glycerol, 5 mM DTT; fractions on SDS-PAGE; conditions: both partners purified
# [4] = biological target: B2; assay: as above; conditions: both partners purified
binder,measurement,setting,value
B1,"in vitro DNA methylation of a 36-mer duplex by DIM2 with HP1 and H3K9me3 peptide, against the DIM2-HP1 mixture",[1],~90 fold
B2,in vitro DNA methylation of (CTA)12/(TAG)12 duplex with HP1 and H3(1-24)K9me3 peptide; reduction against WT DIM2,[2],14 fold
B3,binding result,[3],binds
same,binding result,[4],binds
B4,"in vitro DNA methylation: activity-stimulation effect of HP1, reduction against WT DIM2",[2],~8 fold
same,thermal shift assay: change of the Tm of DIM2 on co-incubation with HP1,[2],2.5 °C
